The source of these data is article PMC2896262 (Structure (London, England : 1993), 2009).

The data set “crystal structure” deals with the molecule itself. Nature of the data set: crystal structure.
For the next data set, the target named is T1, soNrtR (Shewanella oneidensis, UniProt Q8EFJ3 1-237).
T1 sequence: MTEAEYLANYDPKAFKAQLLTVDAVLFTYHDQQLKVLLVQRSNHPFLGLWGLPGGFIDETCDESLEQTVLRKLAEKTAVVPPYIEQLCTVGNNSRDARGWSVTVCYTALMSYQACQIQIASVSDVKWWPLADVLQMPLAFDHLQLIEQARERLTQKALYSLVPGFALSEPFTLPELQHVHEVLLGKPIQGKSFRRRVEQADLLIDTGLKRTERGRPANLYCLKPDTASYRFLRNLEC
The data set can be described thus: X-ray crystal structure.

B1: N-terminal domain of soNrtR (residues 1-159) (domain or fragment, Shewanella oneidensis, UniProt Q8EFJ3 1-159, looked up)
chain: MTEAEYLANYDPKAFKAQLLTVDAVLFTYHDQQLKVLLVQRSNHPFLGLWGLPGGFIDETCDESLEQTVLRKLAEKTAVVPPYIEQLCTVGNNSRDARGWSVTVCYTALMSYQACQIQIASVSDVKWWPLADVLQMPLAFDHLQLIEQARERLTQKALY
Usually stoichiometry N stands for the number of molecules, sites or subunits per partner or assembly. Regarding B1, the “stoichiometry N” value in “crystal structure” is 2.

B2: 28-nt NrtR-box DNA (dsDNA)
DNA 1: CGTAATAGTGTCTTAAAGACACTATTAC
DNA 2: CGTAATAGTGTCTTTAAGACACTATTAC
As for B2, the binding result in the data set with soNrtR is “binds”.
